Legend:
[1] = Sensitivity of CAH to iodoacetamide; type: biochemical; settings: 30 uM CAH, 20 mM iodoacetamide
Description: In addition to commonly used oxidants, the effect of a commonly used sulfhydryl reactive agent (iodoacetamide) was also tested on the activity of WT and variant CAH. It was reasoned that a sulfhydryl reactive compound might react with the cysteine sulfhydryl group of the wild-type protein to block substrate access to the active site much in the same way an oxidant could oxidize the cysteine sulfhydryl group and block active site access.
(§1) To determine sensitivity of WT, C46A and C46S CAH to various oxidants or sulfhydryl reagents, purified protein (30 μM) was pre-incubated with or without the potential inhibitor, 8.5 mM hydrogen peroxide, 50 μM potassium permanganate, 22 μM (1 ppm) ozone or 20 mM iodoacetamide. At appropriate time points, aliquots of the protein samples were diluted 100 fold into a solution of 140 ppm cyanuric acid and incubated for 10 minutes before the cyanuric acid concentration was measured with the melamine turbidity assay (explained in previous document). The results are plotted as the log of the percent of untreated-protein activity as a function of treatment time.

[2] = Resistance of CAH to mercury (II) salt; type: biochemical; settings: 48 uM enzyme, 1.6 mM phenyl mercuric acetate, assayed after one minute
Description: The effect of a common heavy metal, mercury, on the activity of WT and variant CAH was also tested. […] Specifically, mercury (II) salts were used to test resistance, which are known to be particularly damaging to proteins. The WT or C46A enzymes (48 uM) were incubated with 1.6 mM phenyl mercuric acetate; the WT CAH enzyme retained 1% activity (+/−13% error) (so it was 99% inactivated) while the C46A mutant enzyme retained 89% activity (+1-11%) (so it was completely resistant within experimental error) when assayed after one minute.

[3] = Bleach sensitivity of CAH; type: biochemical; settings: 30 μM protein pre-incubated with 1 mM bleach
Description: To determine bleach sensitivity of WT, C46A and C46S CAH, purified protein (30 μM) was pre-incubated with or without 1 mM bleach. At appropriate time points, aliquots of the protein samples were diluted 100 fold into a solution of 140 ppm cyanuric acid and incubated for 10 minutes before the cyanuric acid concentration was measured with the melamine turbidity assay. The results are plotted as the log of the percent of untreated-protein activity as a function of treatment time.

[4] = Inactivation of CAH by Michael addition; type: biochemical; settings: 30 uM enzyme, 350 uM N-ethylmaleimide
Description: Inactivation of the WT and variant CAH from a Michael addition reaction was also investigated using N-ethylmaleimide. Specifically, the WT or C46A enzymes (30 uM) were incubated with 350 uM N-ethylmaleimide.

[5] = Sensitivity of CAH to hydrogen peroxide; type: biochemical; settings: 30 μM CAH, 8.5 mM H2O2
Description: as §1

[6] = Circular dichroism thermal melting; type: physicochemical; settings: CD at 220 nm, 25 μM protein, 55 to 90° C.
Description: The circular dichroism (CD) measurements were performed on a Jasco J-815 spectrometer with 25 μM protein in 50 mM M Tris-HCl buffer, pH 7.2 in a 1 mm path length cell. For thermal melting, the changes in CD spectra at of the proteins were sampled at 220 nm every 1° C. during continuous heating the solutions from 55 to 90° C. at 1 degree per minute. Data were normalized to the initial reading at 55 C.

[7] = Cyanuric acid hydrolase activity (melamine turbidity assay); type: biochemical; settings: 140 ppm cyanuric acid in phosphate buffered saline; 0.03 μM enzyme (0.12 μM for C46D, V, T)
Description: To determine CAH activity, 0.03 μM enzyme was incubated with a 140 ppm cyanuric acid (CYA) solution in phosphate buffered saline (138 mM NaCl, 3 mM KCl, 10 mM Na2HPO4, 2 mM KH2PO4). For the WT protein and the C46A and C46S variants, fractions were removed every 5 minutes to assay CYA concentration using a modified melamine turbidity assay (Downes et al. 1984). An equal volume of melamine solution (2.5 mg/mL in water) was added to cyanuric acid samples and mixed thoroughly. The absorbance at 600 nm was read 2 minutes after mixing. For the severely impaired CAH proteins (C46D, V and T), 0.12 μM protein was used and fractions were removed every hour for CYA measurement. Specific activity (nmol min^−1 mg^−1) was calculated as the average of triplicate data at two time points.

| Molecule | Effect of iodoacetamide on activity [1] | Activity retained [2] [%] | Resistance to inactivation by bleach [3] | Protection from inactivation by N-ethylmaleimide [4] | Decrease of sensitivity to hydrogen peroxide versus wild-type [5] | Thermal melting curve compared to WT [6] | Specific activity [7] [µmol/min/mg] |
| --- | --- | --- | --- | --- | --- | --- | --- |
| C46A: Moorella thermoacetica CAH with cysteine at residue 46 replaced with alanine (protein) MQKVEVFRIPTASPDDISGLATLIDSGKINPAEIVAILGKTEGNGAVNDFTRGFATQSLAMYLAEKLGISREEVVKKVAFIMSGGTEGVMTPHITVFVRKDVQEPAKPGKRLAVGVAFTRDFLPEELGRMEQVNEVARAVKEAMKDAQIDDPRDVHFVQIKCPLLTAERIEDAKRRGKDVVVNDTYKSMAYSRGASALGVALALGEISADKISNEAICHDWNLYSSVASTSAGVELLNDEIIVVGNSTNSASDLVIGHSVMKDAIDADAVRAALKDAGLKFDCCPPAEELAKIVNVLAKAEAASSGTVRGRRNTMLDDSDINHTRSARAVVNAVIASVVGDPMVYVSGGAEHQGPDGGGPIAVIARV | not affected | 89 | largely resistant to inactivation by bleach | completely protected | over four-fold | very closely resemble the WT curve | 10.03 |
| C46S: Moorella thermoacetica CAH with cysteine at residue 46 replaced with serine (protein) MQKVEVFRIPTASPDDISGLATLIDSGKINPAEIVAILGKTEGNGSVNDFTRGFATQSLAMYLAEKLGISREEVVKKVAFIMSGGTEGVMTPHITVFVRKDVQEPAKPGKRLAVGVAFTRDFLPEELGRMEQVNEVARAVKEAMKDAQIDDPRDVHFVQIKCPLLTAERIEDAKRRGKDVVVNDTYKSMAYSRGASALGVALALGEISADKISNEAICHDWNLYSSVASTSAGVELLNDEIIVVGNSTNSASDLVIGHSVMKDAIDADAVRAALKDAGLKFDCCPPAEELAKIVNVLAKAEAASSGTVRGRRNTMLDDSDINHTRSARAVVNAVIASVVGDPMVYVSGGAEHQGPDGGGPIAVIARV |  |  | largely resistant to inactivation by bleach |  | over four-fold | very closely resemble the WT curve | 6.972 |

Reference: US10233437B2, “Hypochlorite resistant cyanuric acid hydrolases and methods of use thereof” (REGENTS OF THE UNIVERSITY OF MINNESOTA, priority 2015, dated 2019)
